Target: T1, CALEOSIN 2 (CLO2), Cub fusion (Arabidopsis thaliana, UniProt Q9FLN9 1-243)
T1 construct: CALEOSIN 2 of Arabidopsis thaliana; the coding region was amplified and inserted into pMetYCgate; Bait; source: yeast split-ubiquitin fusion (pMetYCgate, S. cerevisiae THY.AP4)
Assay: two-hybrid; mating-based split-ubiquitin system in yeast; Cub fusions as bait, NubG fusions as prey; quantitative β-galactosidase assay (Beta-Glo), activity normalized to a reference pair
Conditions: partners not purified

T1 sequence (Q9FLN9 whole entry, the tested form may be a part): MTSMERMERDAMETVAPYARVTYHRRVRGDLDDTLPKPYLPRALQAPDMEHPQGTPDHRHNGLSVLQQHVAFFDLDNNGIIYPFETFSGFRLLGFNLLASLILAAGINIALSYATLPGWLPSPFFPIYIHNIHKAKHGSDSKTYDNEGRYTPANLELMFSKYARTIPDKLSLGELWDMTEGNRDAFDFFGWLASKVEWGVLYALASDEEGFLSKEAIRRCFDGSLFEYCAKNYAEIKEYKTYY

B1: AUTOPHAGY-RELATED PROTEIN 8b (ATG8b), NubG fusion (natural protein, Arabidopsis thaliana, UniProt Q9XEB5 1-117, looked up)
chain: MEKNSFKLSNPLEMRMAESTRIRAKYPERVPVIVEKAGQSDVPDIDKKKYLVPADLTIGQFVYVVRKRIKLGAEKAIFVFVKNTLPPTAALMSAIYEEHKDEDGFLYMTYSGENTFG
notes: AUTOPHAGY-RELATED PROTEIN 8b of Arabidopsis thaliana; the coding region was amplified and inserted into pNXgate32-3HA; Prey; source: yeast split-ubiquitin fusion (pNXgate32-3HA, S. cerevisiae THY.AP5)
  fold weaker β-galactosidase activity than with CLO1, CLO3 and OLE1: 2 fold

From article PMC10663143, “CALEOSIN 1 interaction with AUTOPHAGY-RELATED PROTEIN 8 facilitates lipid droplet microautophagy in seedlings” (Plant Physiology, 2023)
